Measurements published in the DeepSol protein solubility set.

Test: soluble on expression in E. coli; label from the status in PepcDB or PDB records

Sequence | soluble on expression in E. coli
QTKIYESYKLPDYLKDKIKNNNHAEMDENDLDNKIFYKPNVAAHSQFIDYKYNGNHSVEIKFETDAIEVYEIRPVSIATITHVTIPNDCASNNSNSNECVLIIHVWNNSKFVGSNFSCSIACTNKETDQLASHINPIAPVRAFIGPNKNYAFYFIIKFLINKEITTLCKAIVKDSNGKECSIEEFELQSKESVHIVESEVDETTDQVVVEHHTQSPDIKNPDEYVCKCTINLLCYV | soluble
APPKAVLKLEPPWINVLQEDSVTLTCQGARSPESDSIQWFHNGNLIPTHTQPSYRFKANNNDSGEYTCQTGQTSLSDPVHLTVLSEWLVLQTPHLEFQEGETIMLRCHSWKDKPLVKVTFFQNGKSQKFSRLDPTFSIPQANHSHSGDYHCTGNIGYTLFSSKPVTITVQVHHHHHH | soluble
MSVKSDSRHLYLRVIDHIKEKIKDGAYKERQKLPSEFDLAKELGVSRATLREALRILEEENVVIRRHGVGTFVNAKPLFSSGIEQLSSITDMISSVGKTPGTIFLSSSTTSLTEEEKEKFNSEDGFNAVMIERVRTADGEPVVYCIDKLAKEILPDLSGYNEESLLTVIHNNTHKRITYAVAHIEPIGYHPKISPILECEPETALLVLKQMHYDQNDEPILYSINYFRADKFSFHVLRKRM | not soluble
MITLAVDAMGGDQGLAVTVPGATAFLQAHPDVRLIMTGDETQLRQALTAAGAPMERIDICHTTQVVGMDEAPQSALKNKKDSSMRVAINQVKEGKAQAAVSAGNTGALMATARFVLKTIPGIERPAIAKFLPSDTDHVTLALDLGANVDCTSEQLAQFAVIGSELVHALHPQKGQPRVGLVNVGTEDIKGTDTVKQTYKLLQNSKLNFIGNIESNGILYGEADVVVADGFVGNVMLKTIEGAVKFMSGAIRREFQSNLFNKLAAVAALPALKGLKNKLDPRKFNGAILLGLRGIVIKSHGGTDETGFRYALEEAYHEAKSAGLSKIEQGVAEQLAALETAKAVQNENVGGL | not soluble
MGSDKIHHHHHHMPANDFVSPDSIRAQFSAAMSLMYKQEVPLYGTLLELVSEINQQVMAQQPEVAEALRWTGEIERLDQERHGAIRVGTAEELATIARLFAVMGMQPVGYYDLSSAGVPVHSTAFRAVHEQSLHVSPFRVFTSLLRLELIDNPQLRELAQSILAKRQIFTSRALELIAQCEREGGLDAADAETFVQEALHTFRWHQDATVTAEQYQQLHDQHRLIADVVAFKGPHINHLTPRTLDIDAIQLGMPAKGIPPKAVVEGPPTRRHPILLRQTSFKALQETVAFRDQQGREGSHTARFGEIEQRGAALTPKGRQLYDKLLDATRVALGGAPAEANAERYMALLQANFAEFPDDLAQMREQGLAYFRYFATEKGLAARDQEGRPTTLQGLIDAGHVHFEALVYEDFLPVSAAGIFQSNLGDDAQAEYGSNANREAFEAALGLQVQDELALYAQSERRSLQACAQALNLGSM | not soluble
MSLEGKTIGITAIGTDHDWDLKAYQAQIAEIERLGGTAIALDAGRNDQTQVSQIQTLIAQKPDAIIEQLGNLDVLNPWLQKINDAGIPLFTVDTATPHAINNTTSNNYSIGAELALQMVADLGGKGNVLVFNGFYSVPVCKIRYDQMKYVLEAFPDVKIIEPELRDVIPNTIQSAYSNVTDMLTKYPNEGDVGAIWACWDVPMIGATQALQAAGRTDIRTYGVDGSPEFVEMVADPESPAGAVAAQQPSEIGKLAVQNVARHLAGQEVKPFTFAPAVLITKENAAETAADFLPKEGHHHHHH | soluble
MSLEALFNPKSIAVIGASSKPGKIGYAIMKNLIEYGYEGKIYPVNIKGGEMEISGRKFKVYKSILEVPDEVDMAVIVVPAKSVPEVVEECGKKGVKVAPIISSGFGELGEEGKKVEQQLVETARKYGMRILGPNIFGVVYTPAKLNATFGPTDVLPGPLALISQSGALGIALMGWTILEKIGLSAVVSVGNKADIDDADLLEFFKDDENTKAILIYMEGVKDGRRFMEVAKEVSKKKPIIVIKAGRSERGAKAAASHTGSLAGSDTIYSAAFKQTGVLRALTIGEAFDWARALSNLPEPQGENVVIITNGGGIGVMATDAAEEEGLHLYDDLEQLKIFANHMPPFGSYKNPVDLTGMADAKSYEGAIRDALAHPDMHSIIVLYCQTAVLDPRELADVIIREYNESGRKKPLVVAIVGGIEAKQAIDVLNENGIPAYPEPERAVKALSALYKWSKWKAKHK | soluble
MRPCIVIPIYNHKDVIGLTVARLVTHGLPIFIVDDGSDAPTQAVLAALAGQHAGCVTLLRLPVNGGKGAAVMAGLRAARSDGFTHALQIDADGQHDAADVPTFMDAARDHPEAVILGQPVYDATVPKARLYGRYLTHAWVWIETLSFDIRDSMCGFRVYPLALACALIDEVALPTRMDFDIEILVRLHWRRTRFVAIPTRVTYAADGVSHFDVLWDNIRISQSHARLVAGMLVRLPLLLANKARPRQRADQAAAGKAHWWRIAERGSQLGMRLLALSCRLLGTRITALWLYPIVAYFLLTGRAARQASRQYFERLAAASAQDRTPAPGWRSAYRHMIAFAQSGLDKLAAWSGHVSPHRVRFDDPAPFEALMASGRGALVIGAHLGNLEMTRALATRHGQVKVTAVVYIEHARRFNRVLAGAHPEFATHLLEVSDFGPATAMRMQERIDAGELLVIVGDRVPATEMGRTVEATFLGAPARFAQGPYILAHALGCPVYLFFCLKTRQDYTLYFEPFAERIELPRHARATHLATLAQRYASRLEHHCRKAPFQWFNFFDFWARPKKDAHGLEHHHHHH | not soluble
MALVRPFPIVQVVGFQNSGKTTFIERILEKASEQGVHLGCLKHHGHGGEPQTLTEGKDTDRYKAAGADVTAVEGAGVLQLTARRNWDLARLIELYQFLETDCLLIEGFKKAPYPKVVILSEKEDLEALQAVNIIAIIYRKKEHMTEHQGLPVFHADDPVAVDFVLSQLKGESA | soluble
MMVLRMKVEWYLDFVDLNYEPGRDELIVEYYFEPNGVSPEEAAGRIASESSIGTWTTLWKLPEMAKRSMAKVFYLEKHGEGYIAKIAYPLTLFEEGSLVQLFSAVAGNVFGMKALKNLRLLDFHPPYEYLRHFKGPQFGVQGIREFMGVKDRPLTATVPKPKMGWSVEEYAEIAYELWSGGIDLLKDDENFTSFPFNRFEERVRKLYRVRDRVEAETGETKEYLINITGPVNIMEKRAEMVANEGGQYVMIDIVVAGWSALQYMREVTEDLGLAIHAHRAMHAAFTRNPRHGITMLALAKAARMIGVDQIHTGTAVGKMAGNYEEIKRINDFLLSKWEHIRPVFPVASGGLHPGLMPELIRLFGKDLVIQAGGGVMGHPDGPRAGAKALRDAIDAAIEGVDLDEKAKSSPELKKSLREVGLSKAKVGVQH | soluble
MAKVPDLFEDLKNCYSENEDYSSAIDHLSLNQKSFYDASYGSLHETCTDQFVSLRTSETSKMSNFTFKESRVTVSATSSNGKILKKRRLSFSETFTEDDLQSITHDLEETIQPRSAPYTYQSDLRYKLMKLVRQKFVMNDSLNQTIYQDVDKHYLSTTWLNDLQQEVKFDMYAYSSGGDDSKYPVTLKISDSQLFVSAQGEDQPVLLKELPETPKLITGSETDLIFFWKSINSKNYFTSAAYPELFIATKEQSRVHLARGLPSMTDFQIS | soluble
MDPDKKKMFEVIIKKIQQQSSALEEAMKAQKPKVDCSMSREMCSPSGLIIIMERIYEKEFLADMARLNVLPVDVLTRVSAQDSIATEEAKGRLLNESRDVLSEWLDHNHGKDARDHSVFDDLAKRRIFYLAGPFLQSQWHLECSVISSSAVPAARNIVWNDHLRIRRDAAVAAAAAVNNTAGLADMDQGTRIELPKSKHQWSHQDASRHIKFVKSSVGKFFKKKIIQKFSTGGSQNLFFFYTSVCVQDIALNCTSPFWEINNEYNPVIKFSKIRFPADISVINGFRMPFLKM | not soluble
MPRWRSAVEGLMLNRVVEQLTAQLPARNLGWVFPDETTAALLLDGPDGQPLGNLVLGYRPPQPVLFLSRERLRGDPHNPFQRLLATRVRGELLKIEQFKLDRVVALHFGPAEGFIDQPPARLLFEVTGRNANLLVMEEGEGFAGRITLAAREITGSRNRFRTIRSGGPYTPPPPYDKFDPRTMTPADAQTLAGVPLSEWRGRVDGLGPMLSAELARRAEMRPSQAPGDDWERAYDALKSLVADPSVSEGTLSEGAREAARQEKAGALRKLLREPLEKRVTLLENQLGDVTRAEEGVEIAAQDRAEADLLMAYAQTVEPGAASALLPSFDGEGEVPVSLEPQLSAVQNAEKRYARARRRDEVYLRLAEREGSIRSELEAARERLHRLDHAELEQLEQLASDLEREKPERS | not soluble
GMSESCILFFVKYPEPGKVKTRLGEVVGNDKAAMLYRHFVQDMLQGLARLHADLHICYVPGDADLPEKFKAWLGPQHMFAAQQGLDLGERMKHAMQKAFDDGYDRVVLMGSDIPDYPCELVQKALNDLQHYDAAIGPAFDGGYYLIGFRKDSFCPDVFDGIRWGEADVYQPTVEKMRRARLEVLQLPDWNDVDTVWDLNVLYRTNKNSSFRRSSTYALLRENDALIRQYDIDLPGMAPVEKE | soluble
MSLKSGTMVEKLASAKTIAFDKTGTITQGQLSVDQVQPINAGITAAELVGLAASVEQESSHILARSIVAYARKQDVPLKNITDLAEVSGAGVKAFVDGAEIRVGKKNFVTQESQETEKIDKTTIHISRNGTYLGRITFTDTVRPEAKETMEKLHQLHLQRILMLTGDQESVAETIAAEVGITEVHGECLPQDKLTILKELPKENHPVIMVGDGVNDAPSLAAADVGIAMGAHGATAASETADVVILKDDLSKVSQAVEIAQDTMKIAKEGHHHHHH | soluble
MGSDKIHHHHHHMIRLLFASLLAASPIHAQGFAGLGTVADGFAVPAPNPTFSFPDDHGPHPDYRIEWWYLTATLTGADGIDYGIQWTLFRSALAPTTSTDWTAPQIFMGHAGLTTPDAHFSAERLARGGIGQAGVTPVPFRAFIDDWEMTSTTAEGDAYDALSLTARGVDFAYDLALQANGPLIFHGQNGFSVKSAEGQASYYYSQPFYTVTGTLTLPTGAVEVSGNAWLDREWSSQPLSDDQSGWDWFSLQLPDGARLMAFALRDTSDQPFTSATYIAPDGTTQAYGDGAITLTPLVTTDVGGRDVPTEWRLQFPDRGIDITTQPLNPQSWMDTSFPYWEGPITFTGTHDGRGYLEMTGYE | not soluble
MRRDQKMTELNNQIRSLQEEHGKEKLLAAATKILGKKVPTDYVRVLDPLELQASLQQIDAAVQDVLEKGKAREEAYGEKASLIKQKVKLKTAVELKEAEAFMQIQGEGRNQFAYVNDQKVALTNDTLRDAYRLHYSKEERQQLTDVEQELASIDIKIYQTKDAWETAKESADLVKAKAYVQANLLKFLA | not soluble
EVPDLPEEPSETAEEVVTVALRCPNGRVLRRRFFKSWNSQVLLDWMMKVGYHKSLYRLSTSFPRRALEVEGGSSLEDIGITVDTVLNVEEKEQSSQ | soluble
MNKQEVILKVQECAAWWILERQSKLTKLMSETMSINPFMTPFIFDYHSLNDFDELVEAIIAKHLMTGHDTGFGKLIDEKILPRVFGAYKLDKSYRAANEPFIHPCFDEIDHVIQRDDGRIELLSLKAGKWTIQLTMAVQLNKAFHEIINNYPGVADNIVVGVFYGNSHGLTDKYRILRGINTGANHNVIDIRDKVHVYAGKEFWSWLNNGEAETQHWVLEGIERAVKEADIKEKNKDLIEKFKEHVAKKYNEQVLNADGTAQWHKLLEMINE | soluble
